In US20180084767:

How the values were obtained:
Assay in all cases: cell_activity
[1] = tested on: ssTTN 5.1 L TALEN (Xanthomonas (engineered)?); details: as pair with 5.1 R; TALEN mRNA transfected
[2] = tested on: ssTTN 5.1 R TALEN (Xanthomonas (engineered)?); details: as pair with 5.1 L; TALEN mRNA transfected
[3] = tested on: ssTTN 3.1 L TALEN (Xanthomonas (engineered)?); details: as pair with 3.1 R; TALEN mRNA transfected
[4] = tested on: ssTTN 3.1 R TALEN (Xanthomonas (engineered)?); details: as pair with 3.1 L; TALEN mRNA transfected
[5] = tested on: ssBAG3 4.1 L TALEN (Xanthomonas (engineered)?); details: as pair with 4.1 R; transfected cells
[6] = tested on: ssBAG3 4.1 R TALEN (Xanthomonas (engineered)?); details: as pair with 4.1 L; transfected cells

CAGTCATGCAATTTT (double strand) [ssTTN 5.1 L site]
activity [1]: 44.9 % editing

CCAATTCCCAAGTAAT (double strand) [ssTTN 5.1 R site]
activity [2]: 44.9 % editing

GTCATATCCATAAAAAAC (double strand) [ssTTN 3.1 L site]
activity [3]: 60 % editing

GTCCTAACATTTTATAT (double strand) [ssTTN 3.1 R site]
activity [4]: 60 % editing

TGAAGGCAAGAAGACAGAC (double strand) [ssBAG3 4.1 L site]
activity [5]: 21.3 % editing

TGGTCAAATACTCTTCTAT (double strand) [ssBAG3 4.1 R site]
activity [6]: 21.3 % editing
